In patent WO2025083273A1 (dated 2025):
Substitutions are numbered along the chain they refer to.

T1: human DR3 (TNFRSF25) expressed on cells (human, UniProt Q93038 25-417)
T1 sequence: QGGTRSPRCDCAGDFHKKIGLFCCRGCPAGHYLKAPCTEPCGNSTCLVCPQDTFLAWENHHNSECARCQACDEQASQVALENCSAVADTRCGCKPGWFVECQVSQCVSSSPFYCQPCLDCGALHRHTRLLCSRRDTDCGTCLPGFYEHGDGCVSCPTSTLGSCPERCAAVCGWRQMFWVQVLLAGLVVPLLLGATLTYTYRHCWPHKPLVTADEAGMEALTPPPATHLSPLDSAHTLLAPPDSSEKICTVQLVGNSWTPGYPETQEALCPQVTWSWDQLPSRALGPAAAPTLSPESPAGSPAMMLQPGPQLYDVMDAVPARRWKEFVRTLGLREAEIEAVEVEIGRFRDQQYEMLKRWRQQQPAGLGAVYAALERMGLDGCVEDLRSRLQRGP

B1: VHg10/VLg13 (antibody, human IgG1, V domains shown)
VH: EVQLVESGGGLVQPGGSLRLSCAASGFTFSSYAMSWVRQAPGKGLEWVSTISDGDSYSYFPDSVKDRFTISRDNSKNTLYLQMNSLRAEDTAVYYCARDRIYGSVQYYAMDYWGQGTLVTVSS
VL: DIQMTQSPSSLSASVGDRVTITCRASESVEFSGTSLMQWYQQKPGKAPKLLIYAASNVESGVPSRFSGSGSGTDFTFTISSLQPEDIATYYCQQSRKLPYTFGQGTKLEIK
B2: VHg6/VLg6 (antibody, human IgG1, V domains shown)
VH: B1 VH with E1Q, V5Q, E6Q, S49A, S75A, K76R, T78S, Q115R
VL: DVVMTQSPPSLPVTPGEPASISCRASESVEFSGTSLMQWYLQKPGQSPQVLIYAASNVESGVPDRFSGSGSGTDFTLKISRVEAEDVGVYYCQQSRKLPYTFGQGTRLEIK
B3: VHg1/VLg6 (antibody, human IgG1, V domains shown)
VH: B1 VH with E1Q, E6Q, A92S
VL: B2 VL
B4: VHg3/VLg5 (antibody, human IgG1, V domains shown)
VH: B1 VH with E6Q, Q13K, T28K, V48L, T69I, S75A, T78S, A88V, A92G
VL: EIVLTQSPGTLSLSPGERGTLSCRASESVEFSGTSLMQWYQQKPGQAPRLLIYAASNVESGIPDRFSGSGSETDFTLTISRLEPEDLAVYYCQQSRKLPYTFGQGTRLEIK
B5: VHg9/VLg12 (antibody, human IgG1, V domains shown)
VH: B1 VH with Q13K, S75A, T78S
VL: B4 VL with G9A, G19A, D64A, E72G, R81S, L87F, R107K
B6: VHg1/VLg13 (antibody, human IgG1, V domains shown)
VH: B1 VH with E1Q, E6Q, A92S
VL: B1 VL
B7: VHg9/VLg5 (antibody, human IgG1, V domains shown)
VH: B1 VH with Q13K, S75A, T78S
VL: B4 VL
B8: VHg3/mVL (antibody, human IgG1, V domains shown)
VH: B1 VH with E6Q, Q13K, T28K, V48L, T69I, S75A, T78S, A88V, A92G
VL: DIVLTQSPASLAVSLGQRATISCRASESVEFSGTSLMQWYQQRPGLPPKLLIYAASNVESGVPARFSGSGSGTDFSLNIHPVEEDDIAMYFCQQSRKLPYTFGGGTKLEIN
B9: VHg6/mVL (antibody, human IgG1, V domains shown)
VH: B1 VH with E1Q, V5Q, E6Q, S49A, S75A, K76R, T78S, Q115R
VL: B8 VL
B10: VHg2/VLg6 (antibody, human IgG1, V domains shown)
VH: B1 VH with E1Q, V2M, E6Q, Q13K, V37I, S75A, T78S, A97T, Q115R
VL: B2 VL
B11: VHg9/mVL (antibody, human IgG1, V domains shown)
VH: B1 VH with Q13K, S75A, T78S
VL: B8 VL
B12: VHg9/VLg13 (antibody, human IgG1, V domains shown)
VH: B1 VH with Q13K, S75A, T78S
VL: B1 VL
B13: VHg10/VLg1 (antibody, human IgG1, V domains shown)
VH: B1 VH
VL: DVVMTQSPDSLAVSLGERATINCRASESVEFSGTSLMQWYQQKPGQPPKLLIYAASNVESGVPDRFSGSGSGTDFTLTISSLQAEDVVVYYCQQSRKLPYTFGGGTKVEIK
B14: VHg10/VLg2 (antibody, human IgG1, V domains shown)
VH: B1 VH
VL: B1 VL with M4L, P44A, K46L, F77L, I87F, A88G, K107R
B15: VHg10/mVL (antibody, human IgG1, V domains shown)
VH: B1 VH
VL: B8 VL
B16: VHg3/VLg1 (antibody, human IgG1, V domains shown)
VH: B1 VH with E6Q, Q13K, T28K, V48L, T69I, S75A, T78S, A88V, A92G
VL: B13 VL
B17: VHg9/VLg2 (antibody, human IgG1, V domains shown)
VH: B1 VH with Q13K, S75A, T78S
VL: B1 VL with M4L, P44A, K46L, F77L, I87F, A88G, K107R
B18: VHg6/VLg5 (antibody, human IgG1, V domains shown)
VH: B1 VH with E1Q, V5Q, E6Q, S49A, S75A, K76R, T78S, Q115R
VL: B4 VL
B19: VHg1/VLg1 (antibody, human IgG1, V domains shown)
VH: B1 VH with E1Q, E6Q, A92S
VL: B13 VL
B20: VHg9/VLg4 (antibody, human IgG1, V domains shown)
VH: B1 VH with Q13K, S75A, T78S
VL: B13 VL with N22S, G45R, P48L, V88A, G104Q, K107R, V108L
B21: VHg2/VLg1 (antibody, human IgG1, V domains shown)
VH: B1 VH with E1Q, V2M, E6Q, Q13K, V37I, S75A, T78S, A97T, Q115R
VL: B13 VL
B22: VHg2/VLg5 (antibody, human IgG1, V domains shown)
VH: B1 VH with E1Q, V2M, E6Q, Q13K, V37I, S75A, T78S, A97T, Q115R
VL: B4 VL
B23: VHg2/mVL (antibody, human IgG1, V domains shown)
VH: B1 VH with E1Q, V2M, E6Q, Q13K, V37I, S75A, T78S, A97T, Q115R
VL: B8 VL
B24: VHg3/VLg2 (antibody, human IgG1, V domains shown)
VH: B1 VH with E6Q, Q13K, T28K, V48L, T69I, S75A, T78S, A88V, A92G
VL: B1 VL with M4L, P44A, K46L, F77L, I87F, A88G, K107R
B25: VHg3/VLg6 (antibody, human IgG1, V domains shown)
VH: B1 VH with E6Q, Q13K, T28K, V48L, T69I, S75A, T78S, A88V, A92G
VL: B2 VL
B26: VHg5/VLg1 (antibody, human IgG1, V domains shown)
VH: QVQLQQSGGGLVQAGGSLRLSCAASGFTFTSYAMSWVRQAPGKGLEWVATISDGDSYSYFPDSVKDRFIISRDNAKNSLFLQMNSLRAEDTAVYYCARDRIYGSVQYYAMDYWGRGTLVTVSS
VL: B13 VL
B27: VHg5/VLg4 (antibody, human IgG1, V domains shown)
VH: B26 VH
VL: B13 VL with N22S, G45R, P48L, V88A, G104Q, K107R, V108L
B28: VHg5/mVL (antibody, human IgG1, V domains shown)
VH: B26 VH
VL: B8 VL
B29: VHg5/VLg6 (antibody, human IgG1, V domains shown)
VH: B26 VH
VL: B2 VL

target: T1, human DR3 (TNFRSF25) expressed on cells; experiment: cell-based or functional assay

| Signal (FLU), isotype control | Signal (FLU) | Molecule |
| --- | --- | --- |
| 385000 FLU |  | R347 IgG (antibody) |
|  | 3.27e+06 FLU | B1 |
|  | 1.96e+06 FLU | B2 |
|  | 1.5e+06 FLU | B3 |
|  | 2.43e+06 FLU | B4 |
|  | 682000 FLU | B5 |
|  | 2.81e+06 FLU | B6 |
|  | 3.05e+06 FLU | B7 |
|  | 2.86e+06 FLU | B8 |
|  | 2.6e+06 FLU | B9 |
|  | 1.62e+06 FLU | B10 |
|  | 3.35e+06 FLU | B11 |
|  | 3.33e+06 FLU | B12 |
|  | 2.54e+06 FLU | B13 |
|  | 2.84e+06 FLU | B14 |
|  | 3.2e+06 FLU | B15 |
|  | 2.46e+06 FLU | B16 |
|  | 2.88e+06 FLU | B17 |
|  | 2.85e+06 FLU | B18 |
|  | 797000 FLU | B19 |
|  | 2.96e+06 FLU | B20 |
|  | 402000 FLU | B21 |
|  | 2.52e+06 FLU | B22 |
|  | 2.57e+06 FLU | B23 |
|  | 2.23e+06 FLU | B24 |
|  | 2.05e+06 FLU | B25 |
|  | 410000 FLU | B26 |
|  | 1.44e+06 FLU | B27 |
|  | 2.69e+06 FLU | B28 |
|  | 387000 FLU | B29 |
